Measurements taken from patent publication US11260100B2, “Compositions targeting the interaction domain between p27Kip1 and Brk and methods of use thereof to inhibit p27 Y phosphorylation and cdk4 activity” (The Research Foundation for the State University of New York, priority 2014, dated 2022).

Experiments:
[1] = target: T1, cdk2 (Homo sapiens, UniProt P24941); assay: Immunoblot of cdk2T160 as measure of activated cdk2 (FIG. 10); assay type: cell-based; details: MCF7, drugs at IC50
T1 construct: added to or expressed in MCF7 breast cancer cells on day 2 post plating; endogenous in cells; host or cells: MCF7 (ALT-MCF7 tetracycline-inducible line)
Protocol: FIG. 10: ALT BRK inhibits both CDK4 and CDK2. ALT, Palbociclib alone or in combination were added to or expressed in MCF7 breast cancer cells on day 2 post plating. Drugs were added at their IC50 concentration, based on previous results. ALT is expressed from an ALT-MCF7 tetracycline inducible cell line generated in the Blain lab. When tetracycline is added to the cell culture media, ALT is expressed in these cells. Vector: no tetracycline was added, so no ALT induction was detected. Drugs and media were replaced every two days. Cells were harvested every two days, lysed and used in immunoblot analysis. Actin: loading control. pRBser780 is a phospho-specific antibody that recognizes sites phosphorylated by cdk4, so is a measure of active cdk4. cdk2T160 recognizes a required phosphorylation event on residue […] and is a measure of activated cdk2.
Additional experiments were performed assessing activity of Brk in combination with Palbociclib. The data presented in FIGS. 9A and 9B reveal that Palbociclib and Brk inhibit proliferation for 2 days, and then resistance is observed (proliferation increases). Alt maintained arrest for roughly 10 days (50% inhibition of proliferation is detected). […] Alt-Brk/Palbociclib combination leads to a more durable cell cycle arrest. Mono therapy treated cells start to become resistant between day 8-10. […]

[2] = test system: MCF7 cells; assay: Tetracycline inducible Alt Brk expression in MCF7 cells; assay type: cell-based, human; details: +Tet
Protocol: FIGS. 8A-8G: Alt Brk (SEQ ID NO: 17) acts as an endogenous inhibitor of Brk. (FIG. 8A) Flag tagged WT p27 was incubated with increasing amount of Flag tagged Alt-Brk (lanes 5-7) in presence of equal amount of Brk. Lane 5: +equimolar Brk and Alt, lane 6: ++2.5×Alt, lane 7: +++5×Alt Immunoblot analysis was performed using Flag, pY88 and pY74 antibodies. (FIG. 8B) Alt-Brk expressing cells were plated on day 0. They were induced (+Tet) or uninduced (−Tet) on day 1 and cells were harvested on days 2, 3 and 4 Immunoblot analysis was performed using N-terminal Brk, C-terminal Brk, Rb, Ser780 pRb, Flag or Actin antibodies. (FIG. 8C) p27 was immunoprecipitated from induced (+) or un-induced (−) Alt Brk expressing cells and immunoblot analysis was performed with p27, pY88 and pY74 antibodies. (FIG. 8D) Alt Brk or TRE3G vector alone cells were treated with + or −Tet and cell counts were used to monitor proliferation. […] (FIG. 8F) p27 was immunoprecipitated from MCF7 cells that were either contact arrested (G0), asynchronous (A), or serum starved with 1% and 0% serum for 48 h. Immunoblot analysis was performed to probe for p27, pY88 and pY74. IgG and Mv1Lu lysates served as a negative control. (FIG. 8G) Expression of WT or mutant p27s was induced by adding Tetracycline to the culture media. p27 was immunoprecipitated from cell lysates and probed for p27, pY88 and pY74 Immunoprecipitation with IgG served as a negative control.
NP-ALT was added to cell media in the absence of fetal bovine serum for 6 hours. This media was removed and replaced with FBS+media, and cells were allowed to recover for 2 days, at which time, cell counts were determined. Counts were standardized to the proliferation seen in the NO FBS untreated control. • Expression in vivo. Generation of the WT-Brk, KM-Brk, and YF-Brk has been described (32) Amphotropic retroviruses were generated by transfection using Lipofectamine 2000 (Life Technologies 11668-019) of HEK 293 cells with pAmpho envelope and pBabe or pTRE3G tetracycline inducible constructs. Following viral infection of MCF7 cells, stable integrants were isolated by puromycin selection. Colonies were pooled to generate stable, puromycin resistant clones. Stable expression was verified by immunoblot and immunofluorescence analysis. Tetracycline inducible expression was achieved by the addition of TetExpress (Clontech) to the media. • Mouse xenograft model. Female NOD/SCID 8 week old mice were injected with MCF7-ALT cells in the 4th mammary gland. Tumors were allowed to develop to a volume of 200 mm3, before treatment. Tumor volume was monitored every other day using digital calipers. Vehicle: daily gavage with PBS. […] Doxy+PD: Daily gavage of Palbociclib 100 mg/kg and 0.1 mg/ml doxycycline added to the drinking water. • Quantitative RT-PCR. […]

cdk2 activity (cdk2T160) [1]: inhibits cdk2
B1: Alt-Brk: alternative splice variant of Brk (SEQ ID NO: 17), 15 KD protein with SH3 domain, lacks kinase domain (protein, listed as Homo sapiens)
chain: MVSRDQAHLGPKYVGLWDFKSRTDEELSFRAGDVFHVARKEEQWWWATLLDEAGGAVAQGYVPHNYLAERETVESEPAGHAGCAALQDLAACRGPAAPERGGVLPQPARACELPQGPEPVPRPAAGRALPEARA
Rb phosphorylation on residue Ser780 [2]: Rb phosphorylation was reduced
cell cycle effect (cell counting, FACS) [2]: arrested in G1 phase
endogenous p27 Y74 phosphorylation [2]: unchanged
endogenous p27 Y88 phosphorylation [2]: reduced
